Changes are numbered by the printed parent chain. Names and notes keep the numbering of the source.
B1: Variant 14019 (antibody, name in Kabat numbering, V domains shown)
VH: EVQLVESGGGLVQPGGSLRLSCAASGFTFQDYTMDWVRQAPGKGLEWVGDVNPNSGGSIYNQRFKGRFTFSVDRSWNTLYLQMNSLRAEDTAVYYCARNLGPSFYFDYWGQGTLVTVSS
VL: DIQMTQSPSSLSASVGDRVTITCKASQDVSIGVAWYQQKPGKAPKLLIYSASYRYTGVPSRFSGSGSGTDFTLTISSLQPEDFATYYCQQYYIYPYTFGQGTKVEIKR
notes: also called v14019
B2: Variant 14018 (antibody, name in Kabat numbering, V domains shown)
VH: B1 VH with Q30T
VL: B1 VL with Y49W
notes: also called v14018
B3: Variant 14020 (antibody, name in Kabat numbering, V domains shown)
VH: B1 VH with W76K, S103W
VL: B1 VL
notes: also called v14020
B4: Variant 12478 (antibody, human IgG1, kappa)
heavy: EVQLVESGGGLVQPGGSLRLSCAASGFTFYDYTMDWVRQAPGKGLEWVADVNPNSGGSIYNQRFKGRFTLSVDRSKNTLYLQMNSLRAEDTAVYYCARNLGPSFYFDYWGQGTLVTVSSASTKGPSVFPLAPSSKSTSGGTAALGCLVKDYFPEPVTVSWNSGALTSGVHTFPAVLQSSGLYSLSSVVTVPSSSLGTQTYICNVNHKPSNTKVDKKVEPKSCDKTHTCPPCPAPELLGGPSVFLFPPKPKDTLMISRTPEVTCVVVDVSHEDPEVKFNWYVDGVEVHNAKTKPREEQYNSTYRVVSVLTVLHQDWLNGKEYKCKVSNKALPAPIEKTISKAKGQPREPQVYVYPPSRDELTKNQVSLTCLVKGFYPSDIAVEWESNGQPENNYKTTPPVLDSDGSFALVSKLTVDKSRWQQGNVFSCSVMHEALHNHYTQKSLSLSPG
light: not shown
chain: not shown
notes: OA (one-armed) format; clones 7813, 1811, 4372; also called v12478
B5: Variant 12479 (antibody, human IgG1, kappa)
heavy: B4 heavy with Y30N
light: not shown
chain: not shown
notes: OA (one-armed) format; clones 7814, 1811, 4372; also called v12479
B6: Variant 12480 (antibody, human IgG1, kappa)
heavy: B4 heavy with Y30Q
light: not shown
chain: not shown
notes: OA (one-armed) format; clones 7815, 1811, 4372; also called v12480
B7: Variant 12482 (antibody, human IgG1, kappa)
heavy: B4 heavy with Y30F
light: not shown
chain: not shown
notes: OA (one-armed) format; clones 7817, 1811, 4372; also called v12482
B8: Variant 12490 (antibody, human IgG1, kappa)
heavy: B4 heavy with Y30T, G57Y
light: not shown
chain: not shown
notes: OA (one-armed) format; clones 7825, 1811, 4372; also called v12490
B9: Variant 12491 (antibody, human IgG1, kappa)
heavy: B4 heavy with Y30T, G57F
light: not shown
chain: not shown
notes: OA (one-armed) format; clones 7826, 1811, 4372; also called v12491
B10: Variant 12502 (antibody, human IgG1, kappa)
heavy: B4 heavy with Y30T, S75W
light: not shown
chain: not shown
notes: OA (one-armed) format; clones 7840, 1811, 4372; also called v12502
B11: Variant 12505 (antibody, human IgG1, kappa)
heavy: B4 heavy with Y30T, K76E
light: not shown
chain: not shown
notes: OA (one-armed) format; clones 7843, 1811, 4372; also called v12505
B12: Variant 12506 (antibody, human IgG1, kappa)
heavy: B4 heavy with Y30T, K76W
light: not shown
chain: not shown
notes: OA (one-armed) format; clones 7844, 1811, 4372; also called v12506
B13: Variant 12514 (antibody, human IgG1, kappa)
heavy: B4 heavy with Y30T, S103W
light: not shown
chain: not shown
notes: OA (one-armed) format; clones 7852, 1811, 4372; also called v12514
B14: Variant 12536 (antibody, human IgG1, kappa)
heavy: B4 heavy with Y30T
light: not shown
chain: not shown
notes: OA (one-armed) format; clones 3057, 7917, 4372; also called v12536
B15: Variant 12538 (antibody, human IgG1, kappa)
heavy: B4 heavy with Y30T
light: not shown
chain: not shown
notes: OA (one-armed) format; clones 3057, 7919, 4372; also called v12538
B16: Variant 12610 (antibody, human IgG1, kappa)
heavy: B4 heavy with Y30A
light: not shown
chain: not shown
notes: OA (one-armed) format; clones 3376, 1811, 4372; also called v12610
B17: variant 12506 (antibody, human IgG1, kappa)
heavy: B4 heavy with Y30T, K76W
light: not shown
chain: not shown
notes: OA pertuzumab variant, HC K75W (Kabat); also called v12506
B18: variant 12514 (antibody, human IgG1, kappa)
heavy: B4 heavy with Y30T, S103W
light: not shown
chain: not shown
notes: OA pertuzumab variant, HC S99W (Kabat); also called v12514
B19: variant 12520 (antibody, human IgG1, kappa)
heavy: B4 heavy with Y30R, G57Y
light: not shown
chain: not shown
notes: also called v12520
B20: variant 12536 (antibody, human IgG1, kappa)
heavy: B4 heavy with Y30T
light: not shown
chain: not shown
notes: OA pertuzumab variant, LC Y96G (Kabat); also called v12536
B21: variant 12538 (antibody, human IgG1, kappa)
heavy: B4 heavy with Y30T
light: not shown
chain: not shown
notes: OA pertuzumab variant, LC Y49W (Kabat); also called v12538
B22: variant 12540 (antibody, human IgG1, kappa)
heavy: B4 heavy with Y30T
light: not shown
chain: not shown
notes: OA pertuzumab variant, LC Y96V (Kabat); also called v12540

biological target: T1, HER2 expressed on the surface of cells (human, UniProt P04626 23-1255); assay: cell-based or functional assay

Binder | growth inhibition IC50 (potency), SKBR3 cells | growth inhibition span (percentage of cells killed), SKBR3 cells | growth inhibition span ratio to WT, SKBR3 cells
B1 | 0.25 nM | 25% | 1.5 fold
B2 | 0.28 nM | 29% | 1.7 fold
B3 | 0.17 nM | 26% | 1.6 fold

biological target: T2, Recombinant human HER2 (human, UniProt P04626 23-652); assay: calculated from the SPR Ka ratio to WT, -RTln(Ka,mut/Ka,WT), 298 K
T2 construct: extracellular domain; Analyte of the SPR assays; also called HER2 ECD; ECD2 of HER2

Binder | ΔΔG
B4 | -0.8 kcal/mol
B5 | -0.9 kcal/mol
B6 | -0.9 kcal/mol
B7 | -0.6 kcal/mol
B8 | -0.6 kcal/mol
B9 | -0.4 kcal/mol
B10 | -1 kcal/mol
B11 | -0.8 kcal/mol
B12 | -2 kcal/mol
B13 | -0.9 kcal/mol
B14 | -0.8 kcal/mol
B15 | -0.9 kcal/mol
B16 | -0.9 kcal/mol

biological target: T1, HER2 expressed on the surface of cells; assay: flow cytometry on BT474 cells, n=1; B50 = concentration at 50% of Bmax
Protocol: (§1) Binding of the test antigen-binding constructs to the surface of HER2+ cells was determined by flow cytometry. Cells were washed with PBS and resuspended in DMEM at 1×10⁵ cells/100 μl. 100 μl cell suspension was added into each microcentrifuge tube, followed by 10 μl/tube of the antigen-binding constructs. The tubes were incubated for 2 hr at 4° C. on a rotator. The microcentrifuge tubes were centrifuged for 2 min 2000 RPM at room temperature and the cell pellets washed with 500 μl media. Each cell pellet was resuspended in 100 μl of fluorochrome-labelled secondary antibody diluted in media to 2 μg/sample. The samples were then incubated for lhr at 4° C. on a rotator. After incubation, the cells were centrifuged for 2 min at 2000 rpm and washed in media. The cells were resuspended in 500 μl media, filtered, transferred to a tube containing 5 μl propidium iodide (PI) and analyzed on a BD LSR II flow cytometer according to the manufacturer's instructions. The B50 of the tested antigen-binding constructs was assessed by FACS with data analysis and curve fitting performed in GraphPad Prism. The experiment was carried out once (n=1) in SKBr3 cells, and twice (n=2) in SKOV3, MCF7, and BT-474 cells.
(§2) The experiment was performed once (n=1) in each cell line.

Binder | B50
B1 | 2.9 nM
B2 | 2.4 nM
B3 | 4.1 nM

biological target: T1, HER2 expressed on the surface of cells; assay: flow cytometry on SKBR3 cells, n=1; B50 = concentration at 50% of Bmax
Protocol: as §1, §2

Binder | B50
B1 | 14 nM
B2 | 8.4 nM
B3 | 21 nM

biological target: T1, HER2 expressed on the surface of cells; assay: flow cytometry on SKBR3 cells, n=1
Protocol: as §1, §2

Binder | Bmax
B1 | 29000 MFI
B2 | 32000 MFI
B3 | 33000 MFI

biological target: T1, HER2 expressed on the surface of cells; assay: cell-based or functional assay; remark: another data set of the same source

Binder | growth inhibition IC50 (potency), NCI-N87 cells, 5 days | growth inhibition span (percentage of cells killed), NCI-N87 cells | increase in efficacy with respect to the WT, NCI-N87 cells | increase in potency with respect to the WT, NCI-N87 cells
B1 | 4.1 nM | 37% | 2.2 fold | 2.2 fold
B2 | 2.1 nM | 32% | 1.9 fold | 4.3 fold
B3 | 3.5 nM | 55% | 3.2 fold | 2.6 fold

biological target: T2, Recombinant human HER2; assay: SPR post-SEC (value taken over from Table 5); Ka ratio to WT v10013
Protocol: (§3) The affinity towards HER2 ECD of the samples was measured by SPR on a Biacore T200 as follows. Between 2000 and 4000 RU of anti-human Fc injected at concentration between 5 and 10 μg/ml was immobilized on a CM5 chip using standard amine coupling. Antigen-binding constructs were captured on the anti-human Fc (injected at concentration at 0.51 microg/mL in PBST, 1 min at 10 microl/min) at response levels ranging from 120-270 RU. […] HER2 dilutions were analyzed in duplicates. Sensograms were fit globally to a 1: 1 Langmuir binding model, using the software provided with the Biacore T200. All experiments were conducted at 25° C.
(§4) The affinity of antigen-binding constructs in OA format was determined by SPR following protein A purification. […] Antigen-binding constructs in FSA format were purified by protein A affinity and SEC prior to assessment of affinity by SPR.

Binder | Ka, mut/Ka, WT
B4 | 3.6 fold
B5 | 4.7 fold
B6 | 4.7 fold
B7 | 2.9 fold
B8 | 2.7 fold
B9 | 2.1 fold
B10 | 5.3 fold
B11 | 3.7 fold
B12 | 30.6 fold
B13 | 4.5 fold
B14 | 4 fold
B15 | 4.8 fold
B16 | 4.5 fold

biological target: T1, HER2 expressed on the surface of cells; assay: flow cytometry on MCF7 cells (low HER2), n=1; B50 = concentration at 50% of Bmax
Protocol: as §1, §2

Binder | B50
B1 | 1.4 nM
B2 | 0.9 nM
B3 | 2.6 nM

biological target: T1, HER2 expressed on the surface of cells; assay: cell-based or functional assay; remark: another data set of the same source

Binder | growth inhibition IC50 (potency), BT474 cells + EGF | growth inhibition span (percentage of cells killed), BT474 cells + EGF | growth inhibition span ratio to WT, BT474 cells + EGF
B1 | 1.1 nM | 33% | 1.8 fold
B2 | 1.7 nM | 33% | 1.8 fold
B3 | 1.7 nM | 37% | 2 fold

biological target: T3, Recombinant human HER2 (human, UniProt P04626 23-652); assay: SPR, post-SEC; ratio to WT v10013
T3 construct: extracellular domain; analyte of the SPR assays; also called HER2 ECD; ECD2 of HER2
Protocol: as §3, §4

Binder | Ka, mut/Ka, WT
B17 | 30.6
B18 | 4.5
B19 | 3.1
B20 | 4
B21 | 4.8
B22 | 1.9

biological target: T1, HER2 expressed on the surface of cells; assay: cell-based or functional assay; remark: another data set of the same source

Binder | growth inhibition IC50 (potency), BT474 cells | growth inhibition span (percentage of cells killed), BT474 cells | growth inhibition span ratio to WT, BT474 cells
B1 | 0.51 nM | 32% | 3 fold
B2 | 0.66 nM | 30% | 2.8 fold
B3 | 0.55 nM | 27% | 2.6 fold

biological target: T1, HER2 expressed on the surface of cells; assay: cell-based or functional assay; remark: another data set of the same source

Binder | growth inhibition span (percentage of cells killed), MDA-MB-175 cells
B1 | 85%
B2 | 85%
B3 | 80%

biological target: T1, HER2 expressed on the surface of cells; assay: flow cytometry on BT474 cells, n=1
Protocol: as §1, §2

Binder | Bmax
B1 | 23000 MFI
B2 | 22000 MFI
B3 | 22000 MFI

biological target: T3, Recombinant human HER2; assay: SPR, pre-SEC; ratio to WT v10013;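 note: SPR on Biacore T200 at 25 °C, constructs captured via anti-human Fc on CM5 chip, HER2 ECD as analyte, 1:1 Langmuir global fit, after protein A purification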

Binder | Ka, mut/Ka, WT
B17 | 30.6
B18 | 5.8
B19 | 3.6
B20 | 4.1
B21 | 4.2
B22 | 1.6

biological target: T3, Recombinant human HER2; assay: SPR, variant captured on anti-human Fc, HER2 flowed, 25 C, post-SEC
Protocol: as §3, §4

Binder | Kd
B17 | 0.68 nM
B18 | 4.6 nM
B19 | 6.6 nM
B20 | 5.2 nM
B21 | 4.4 nM
B22 | 11 nM

biological target: T1, HER2 expressed on the surface of cells; assay: flow cytometry on MCF7 cells (low HER2), n=1
Protocol: as §1, §2

Binder | Bmax
B1 | 670 MFI
B2 | 680 MFI
B3 | 640 MFI

biological target: T3, Recombinant human HER2; assay: SPR, variant captured on anti-human Fc, HER2 flowed, 25 C, pre-SEC;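 note: HER2 extracellular domain binding on Biacore T200, CM5 chip with amine-coupled anti-human Fc, duplicate antigen dilutions, global 1:1 Langmuir fit, measured after protein A purification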
Protocol: as §3, §4

Binder | Kd
B17 | 0.64 nM
B18 | 3.4 nM
B19 | 5.4 nM
B20 | 4.8 nM
B21 | 4.7 nM
B22 | 12 nM

Source: patent US20180273635A1 (Zymeworks, published 2018)
